# Values quoted from earlier work, collected in patent US20260055200A1, “COMBINATION THERAPIES” (Alligator Bioscience AB, priority 2022, published 2026).
# Like-named read-outs stand apart in the source and are kept apart here.
# Columns and labels:
# [1] = tested on: metastatic pancreatic cancer; conditions: MPACT study; cited from earlier work
# [2] = tested on: metastatic pancreatic cancer; conditions: standard first-line treatment; cited from earlier work
# [3] = tested on: metastatic pancreatic cancer; conditions: PRODIGE 4, 342 patients; cited from earlier work
# [4] = tested on: previously untreated pancreatic cancer; conditions: cited from earlier work
# [5] = tested on: previously untreated metastatic pancreatic cancer; conditions: cited from earlier work
# [6] = in combination with Gem-NabPac with or without nivolumab
molecule,measurement,setting,value
Nc1ccn([C@@H]2O[C@H](CO)[C@@H](O)C2(F)F)c(=O)n1 [gemcitabine],ORR,[1],7%
same,mOS,[1],6.7 months
same,median overall survival (mOS),[2],about 6 months
same,mOS,[3],6.8 months
same,objective response rate (ORR),[3],9.4%
"Selicrelumab: CD40 agonistic monoclonal antibody, with an IgG2 format",DLT,"[4]; 0.2 mg/kg dose level, with gemcitabine","One DLT, a cerebrovascular accident"
same,proportion of patients with liver enzyme elevations,"[4]; all grade 1-2, with gemcitabine",approximately ⅔
same,dose up to which the combination was well tolerated,[4]; in combination with gemcitabine,up to 0.2 mg/kg
same,complete responses,[4]; with gemcitabine,no complete responses (CR) were observed
same,patients with cytokine release syndrome in relation to the infusion,[4]; with gemcitabine,20 of the 22
same,response rate,[4]; with gemcitabine,19%
"APX005M: CD40 agonistic monoclonal antibody, with a mutated IgG1 format for improved binding to FcγR2b (antibody, chains of the INN, looked up, V domains shown) VH: QVQLVESGGGVVQPGRSLRLSCAASGFSFSSTYVCWVRQAPGKGLEWIACIYTGDGTNYSASWAKGRFTISKDSSKNTVYLQMNSLRAEDTAVYFCARPDITYGFAINFWGPGTLVTVSS VL: DIQMTQSPSSLSASVGDRVTIKCQASQSISSRLAWYQQKPGKPPKLLIYRASTLASGVPSRFSGSGSGTDFTLTISSLQPEDVATYYCQCTGYGISWPIGGGTKVEIK","Complete Response, patients",[5]; Total (N = 24),0
same,"Not Evaluable, patients (%)",[5]; Total (N = 24),1 (4%)
same,"Partial Response, patients (%)",[5]; Total (N = 24),13 (54%)
same,"Progressive Disease, patients (%)",[5]; Total (N = 24),1 (4%)
same,"Stable Disease, patients (%)",[5]; Total (N = 24),9 (38%)
same,circulating mutant KRAS DNA,[5]; [6],marked and rapid decrease
same,"immune profiling of PBMCs, myeloid compartment",[5]; [6],rapid activation of DCs in most patients
